Data set [1] deals with CD8 alpha (CD8a) on CD8+ T cells / PBMC (Homo sapiens, UniProt P01732 P01732:22-235). Put plainly: flow; apparent Kd on CD8+ T cells, 4 C, 5.5 mM Mg; binding reduced 73-77% by CD8a siRNA. The note with it: label: 5'-FAM (cells); biotin (BLI).
For data set [2], the target named is CD8 alpha (CD8a) extracellular domain (Homo sapiens, UniProt P01732 P01732:22-182). As to the kind of experiment: BLI; 25 C, 5.5 mM Mg, tRNA, BSA, 0.01% tween-20. The following applies: tags: Sino Biological; label: 5'-FAM (cells); biotin (BLI). The method, then:
The observed differences in binding affinity values determined by the two methods is expected. Mass transport limitations not present with BLI but present when staining cells in static wells will favor re-binding and thereby limit dissociation, improving the apparent KD of the faster dissociating A3 relative to the other aptamers.
BLI studies were conducted on a ForteBio Octet Red96 instrument at 25° C. with sample agitation at 1000 rpm. The sample buffer used for all steps was comprised of binding buffer with 0.01% tween-20. Streptavidin-coated biosensors were loaded with 50nM biotinylated aptamer until all sensors (except for the reference) reached a capture threshold of 0.5 nm. After a 100 second rinse and baseline steps in buffer alone, sensors were exposed to a 1:3 dilution series of recombinant human CD8a protein (Sino Biological) ranging from 150nM to 5.56nM. Association with protein was monitored for 1200 sec, and dissociation was carried out for 600 second in buffer alone. Data analysis was carried out using Octet Data Analysis 9.0 software (ForteBio). Kinetic constants were calculated by conducting a global fit of the several processed association and dissociation curves from the protein dilution series to a 1:1 binding model. The quality of the fit was evaluated by the R2 and χ2 values.

Sequence of CD8 alpha (CD8a) on CD8+ T cells / PBMC (P01732 22-235, one chain of several): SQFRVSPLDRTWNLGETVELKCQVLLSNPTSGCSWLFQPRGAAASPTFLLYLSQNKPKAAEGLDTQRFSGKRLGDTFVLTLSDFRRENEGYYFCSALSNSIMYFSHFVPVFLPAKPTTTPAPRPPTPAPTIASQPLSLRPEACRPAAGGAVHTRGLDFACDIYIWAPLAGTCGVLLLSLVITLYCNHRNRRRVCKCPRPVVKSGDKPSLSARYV
Sequence of CD8 alpha (CD8a) extracellular domain (P01732 22-182, one chain of several): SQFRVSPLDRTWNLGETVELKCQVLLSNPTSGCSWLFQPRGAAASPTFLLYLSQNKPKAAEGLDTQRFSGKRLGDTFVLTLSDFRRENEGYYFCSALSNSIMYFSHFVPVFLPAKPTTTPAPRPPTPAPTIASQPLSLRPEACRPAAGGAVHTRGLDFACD

B1: A8 (ssDNA)
DNA: ATCCAGAGTGACGCAGCAGCTCGATCGTATAGCCGTGACGCAGCTTGAAATGGGATCGCGTCCACAGTTTTGGACACGGTGGCTTAGT
Regarding B1, the Kd in data set [1] worked out at 2.4 nM.

B2: A1 (ssDNA)
DNA: ATCCAGAGTGACGCAGCACGCAGCACCCGTGGTAGTGTATCAGGGAGACACTACGTGATGCAGCTTGAAATGGACACGGTGGCTTAGT
Regarding B2, the Kd in data set [2] was 20.1 nM; in data set [1] it was 18.3 nM.

B3: A3 (ssDNA)
DNA: ATCCAGAGTGACGCAGCAACAGAGGTGTAGAAGTACACGTGAACAAGCTTGAAATTGTCTCTGACAGAGGTGGACACGGTGGCTTAGT
Regarding B3, the Kd in data set [1] was 1.9 nM.

The record behind these values is patent US20210269772A1, “COMPOSITIONS AND METHODS RELATED TO APTAMER-BASED REVERSIBLE CELL SELECTION” (UNIVERSITY OF WASHINGTON, published 2021).
